Assays:
[1] = test system: autophosphorylation (phosphotyrosine); assay: In vitro kinase library screen: autophosphorylation; assay type: biochemical
Experimental: Proteins were produced from DNA plasmids of Mock Luciferase, Promega, tyrosine kinase clone Spleen Tyrosine kinase (SYK, IMAGE ID# 3870426) and Eph receptor-A7 (EphA7, IMAGE ID# 3991628) (Incyte Genomics, CA) and immobilized on streptavidin or avidin coated NPT-IPR plates as described in the Example 7. To promote autophosphorylation in these immobilized and purified proteins, Mn++ ions were added in a 50 μl reaction containing 5 mM MgCl2, 5 mM MnCl2, 100 μM ATP, 25 mM Tris-HCl buffer pH 7.4, 0.05 mM Na3VO4, 0.004% TritonX-100, 2 mM DTT and EDTA-free protease inhibitor (Roche Molecular Biochemicals). This mixture was incubated with shaking at room temperature overnight to allow autophosphorylation. Following this incubation, wells were washed 2 times with TT-buffer and 2 times with water. Following this step, 50 ng Sulfo-TAG labeled anti-phosphotyrosine in buffer containing 25 mM Tris-HCl buffer pH 7.4, 5 mM MgCl2, 0.05 mM Na3VO4, 0.004% TritonX-100, 2 mM DTT and 0.05% IgG in a final volume of 50 μl was added followed by incubation at room temperature for 45 min. The unbound reagents were removed by one time washing with water, and the TAG label was detected in presence of 150 μl IPR assay buffer (0.4 mM Gly—Gly buffer, pH 7.8, 1 mM EDTA, 0.1 M TPA). The ECL signals were measured using an imaging plate reader.
(§1) Proteins were produced in an in vitro transcription and translation reaction as described in the Materials and Methods. […] The reaction was stopped by mixing with BB2 buffer. Biotinylated proteins from 50 μl of the mixture (representing 0.5 μl to 5 μl of TnT reaction) were immobilized onto streptavidin or avidin coated NPT-IPR plates by shaking at room temperature for 45 min. The activity of the immobilized protein towards pEY or autophosphorylation was further assayed by the methods described in examples 7 and 8.

pEY = assay: In vitro kinase library screen: activity towards pEY; assay type: biochemical; settings: 5 ul of expressed protein
Experimental: Proteins were produced in an in vitro transcription and translation reaction. […] The unbound components of the reaction containing endogenous kinases were removed by three washes with TT-buffer (25 mM Tris-HCl buffer pH 7.4 and 0.004% Triton), two five minutes washings with high-salt wash buffer (25 mM Tris-HCl buffer pH 7.4, 0.004% Triton, 1M NaCl and 5 mM DTT) and 3 more washes with TT-buffer. To these immobilized and purified proteins a tyrosine kinase substrate, 5 nM pEY (poly Glu-Tyr, Sigma, MO), was added in a 50 μl reaction solution containing 5 mM MgCl2, 5 mM MnCl2, 100 μM ATP, 25 mM Tris-HCl buffer pH 7.4, 0.05 mM Na3VO4, 0.004% TritonX-100, 2 mM DTT and EDTA-free protease inhibitor (Roche Molecular Biochemicals). This mixture was incubated with shaking at room temperature overnight to allow phosphorylation of the pEY substrate by the immobilized kinases. Following this incubation, 45 μl of this mixture was transferred to a streptavidin or avidin-coated NPT IPR plate coated with biotinylated anti-phosphotyrosine antibody (PY20, Zymed labs, CA) followed by incubation for 30 minutes at room temperature to allow the binding of the phosphorylated pEY substrate to the PY20 coated NPT plate. Following this binding step, 50 ng Sulfo-TAG labeled anti-phosphotyrosine in buffer containing 25 mM Tris-HCl buffer pH 7.4, 5 mM MgCl2, 0.05 mM Na3VO4, 0.004% TritonX-100, 2 mM DTT and 0.05% IgG was added followed by incubation at room temperature for 30 mm. The unbound reagents were removed by one time washing with water, and the TAG label was detected in presence of 150 μl IPR assay buffer (0.4 mM Gly-Gly buffer, pH 7.8, 1 mM EDTA, 0.1 M TPA). The ECL signals were measured using an imaging plate reader.
as §1

Row | Molecule | ECL signal [1] | HTS signal (pEY)
1 | 4398416: IMAGE clone protein: Csk, c-src tyrosine kinase (protein, UniProt P41241 2-450, looked up) Tyrosine-protein kinase CSK: SAIQAAWPSGTECIAKYNFHGTAEQDLPFCKGDVLTIVAVTKDPNWYKAKNKVGREGIIPANYVQKREGVKAGTKLSLMPWFHGKITREQAERLLYPPETGLFLVRESTNYPGDYTLCVSCEGKVEHYRIMYHASKLSIDEEVYFENLMQLVEHYTTDADGLCTRLIKPKVMEGTVAAQDEFYRSGWALNMKELKLLQTIGKGEFGDVMLGDYRGNKVAVKCIKNDATAQAFLAEASVMTQLRHSNLVQLLGVIVEEKGGLYIVTEYMAKGSLVDYLRSRGRSVLGGDCLLKFSLDVCEAMEYLEGNNFVHRDLAARNVLVSEDNVAKVSDFGLTKEASSTQDTGKLPVKWTAPEALREKKFSTKSDVWSFGILLWEIYSFGRVPYPRIPLKDVVPRVEKGYKMDAPDGCPPAVYEVMKNCWHLDAATRPTFLQLREQLEHIKTHELHL | 349,847 | 683,039
2 | 4384416: IMAGE clone protein: BTK, Bruton agammaglobulinemia tyrosine kinase (protein, UniProt Q06187 2-659, looked up) Tyrosine-protein kinase BTK: AAVILESIFLKRSQQKKKTSPLNFKKRLFLLTVHKLSYYEYDFERGRRGSKKGSIDVEKITCVETVVPEKNPPPERQIPRRGEESSEMEQISIIERFPYPFQVVYDEGPLYVFSPTEELRKRWIHQLKNVIRYNSDLVQKYHPCFWIDGQYLCCSQTAKNAMGCQILENRNGSLKPGSSHRKTKKPLPPTPEEDQILKKPLPPEPAAAPVSTSELKKVVALYDYMPMNANDLQLRKGDEYFILEESNLPWWRARDKNGQEGYIPSNYVTEAEDSIEMYEWYSKHMTRSQAEQLLKQEGKEGGFIVRDSSKAGKYTVSVFAKSTGDPQGVIRHYVVCSTPQSQYYLAEKHLFSTIPELINYHQHNSAGLISRLKYPVSQQNKNAPSTAGLGYGSWEIDPKDLTFLKELGTGQFGVVKYGKWRGQYDVAIKMIKEGSMSEDEFIEEAKVMMNLSHEKLVQLYGVCTKQRPIFIITEYMANGCLLNYLREMRHRFQTQQLLEMCKDVCEAMEYLESKQFLHRDLAARNCLVNDQGVVKVSDFGLSRYVLDDEYTSSVGSKFPVRWSPPEVLMYSKFSSKSDIWAFGVLMWEIYSLGKMPYERFTNSETAEHIAQGLRLYRPHLASEKVYTIMYSCWHEKADERPTFKILLSNILDVMDEES | 1,503,772 | 793,874
3 | 4498209: IMAGE clone protein: EPHB1, EphB1 (protein, UniProt P54762 18-984, looked up) Ephrin type-B receptor 1: MEETLMDTRTATAELGWTANPASGWEEVSGYDENLNTIRTYQVCNVFEPNQNNWLLTTFINRRGAHRIYTEMRFTVRDCSSLPNVPGSCKETFNLYYYETDSVIATKKSAFWSEAPYLKVDTIAADESFSQVDFGGRLMKVNTEVRSFGPLTRNGFYLAFQDYGACMSLLSVRVFFKKCPSIVQNFAVFPETMTGAESTSLVIARGTCIPNAEEVDVPIKLYCNGDGEWMVPIGRCTCKPGYEPENSVACKACPAGTFKASQEAEGCSHCPSNSRSPAEASPICTCRTGYYRADFDPPEVACTSVPSGPRNVISIVNETSIILEWHPPRETGGRDDVTYNIICKKCRADRRSCSRCDDNVEFVPRQLGLTECRVSISSLWAHTPYTFDIQAINGVSSKSPFPPQHVSVNITTNQAAPSTVPIMHQVSATMRSITLSWPQPEQPNGIILDYEIRYYEKEHNEFNSSMARSQTNTARIDGLRPGMVYVVQVRARTVAGYGKFSGKMCFQTLTDDDYKSELREQLPLIAGSAAAGVVFVVSLVAISIVCSRKRAYSKEAVYSDKLQHYSTGRGSPGMKIYIDPFTYEDPNEAVREFAKEIDVSFVKIEEVIGAGEFGEVYKGRLKLPGKREIYVAIKTLKAGYSEKQRRDFLSEASIMGQFDHPNIIRLEGVVTKSRPVMIITEFMENGALDSFLRQNDGQFTVIQLVGMLRGIAAGMKYLAEMNYVHRDLAARNILVNSNLVCKVSDFGLSRYLQDDTSDPTYTSSLGGKIPVRWTAPEAIAYRKFTSASDVWSYGIVMWEVMSFGERPYWDMSNQDVINAIEQDYRLPPPMDCPAALHQLMLDCWQKDRNSRPRFAEIVNTLDKMIRNPASLKTVATITAVPSQPLLDRSIPDFTAFTTVDDWLSAIKMVQYRDSFLTAGFTSLQLVTQMTSEDLLRIGITLAGHQKKILNSIHSMRVQISQSPTAMA | 3,138 | 853

Second part, the molecule after the results:

Row | ECL signal [1] | HTS signal (pEY) | Molecule
4 | 1,198,625 | 958,415 | 4778819: IMAGE clone protein: Hck, hemopoietic cell kinase (protein, UniProt P08103 2-524, looked up) Tyrosine-protein kinase HCK: GGRSSCEDPGCPRSEGRAPRMGCVKSRFLRDGSKASKTEPSANQKGPVYVPDPTSSSKLGPNNSNSMPPGFVEGSEDTIVVALYDYEAIHREDLSFQKGDQMVVLEEAGEWWKARSLATKKEGYIPSNYVARVNSLETEEWFFKGISRKDAERHLLAPGNMLGSFMIRDSETTKGSYSLSVRDFDPQHGDTVKHYKIRTLDSGGFYISPRSTFSSLQELVLHYKKGKDGLCQKLSVPCVSPKPQKPWEKDAWEIPRESLQMEKKLGAGQFGEVWMATYNKHTKVAVKTMKPGSMSVEAFLAEANLMKSLQHDKLVKLHAVVSQEPIFIVTEFMAKGSLLDFLKSEEGSKQPLPKLIDFSAQISEGMAFIEQRNYIHRDLRAANILVSASLVCKIADFGLARIIEDNEYTAREGAKFPIKWTAPEAINFGSFTIKSDVWSFGILLMEIVTYGRIPYPGMSNPEVIRALEHGYRMPRPDNCPEELYNIMIRCWKNRPEERPTFEYIQSVLDDFYTATESQYQQQP
5 | 50,479 | 1,711 | 4537393: IMAGE clone protein: TTK protein kinase (protein, UniProt P33981 1-857, looked up) Dual specificity protein …: MESEDLSGRELTIDSIMNKVRDIKNKFKNEDLTDELSLNKISADTTDNSGTVNQIMMMANNPEDWLSLLLKLEKNSVPLSDALLNKLIGRYSQAIEALPPDKYGQNESFARIQVRFAELKAIQEPDDARDYFQMARANCKKFAFVHISFAQFELSQGNVKKSKQLLQKAVERGAVPLEMLEIALRNLNLQKKQLLSEEEKKNLSASTVLTAQESFSGSLGHLQNRNNSCDSRGQTTKARFLYGENMPPQDAEIGYRNSLRQTNKTKQSCPFGRVPVNLLNSPDCDVKTDDSVVPCFMKRQTSRSECRDLVVPGSKPSGNDSCELRNLKSVQNSHFKEPLVSDEKSSELIITDSITLKNKTESSLLAKLEETKEYQEPEVPESNQKQWQSKRKSECINQNPAASSNHWQIPELARKVNTEQKHTTFEQPVFSVSKQSPPISTSKWFDPKSICKTPSSNTLDDYMSCFRTPVVKNDFPPACQLSTPYGQPACFQQQQHQILATPLQNLQVLASSSANECISVKGRIYSILKQIGSGGSSKVFQVLNEKKQIYAIKYVNLEEADNQTLDSYRNEIAYLNKLQQHSDKIIRLYDYEITDQYIYMVMECGNIDLNSWLKKKKSIDPWERKSYWKNMLEAVHTIHQHGIVHSDLKPANFLIVDGMLKLIDFGIANQMQPDTTSVVKDSQVGTVNYMPPEAIKDMSSSRENGKSKSKISPKSDVWSLGCILYYMTYGKTPFQQIINQISKLHAIIDPNHEIEFPDIPEKDLQDVLKCCLKRDPKQRISIPELLAHPYVQIQTHPVNQMAKGTTEEMKYVLGQLVGLNSPNSILKAAKTLYEHYSGGESHNSSSSKTFEKKRGKK

From US7063946B2, “Methods, reagents, kits and apparatus for protein function analysis” (Meso Scale Technologies, LLC., priority 2001, dated 2006)
